Measured values from patent US20200069736A1 (WHITEHEAD INSTITUTE FOR BIOMEDICAL RESEARCH, published 2020).

Target: T1, murine Class II MHC molecules on wild-type C57BL/6 mouse B cells (mouse, UniProt P14434 24-256; P14483 28-265)
T1 construct: whole, on cells; Endogenous MHC class II on B cells immobilised on streptavidin beads through biotinylated anti-CD19; also called mouse MHC class II
T1 sequence (MHC II alpha, looked up): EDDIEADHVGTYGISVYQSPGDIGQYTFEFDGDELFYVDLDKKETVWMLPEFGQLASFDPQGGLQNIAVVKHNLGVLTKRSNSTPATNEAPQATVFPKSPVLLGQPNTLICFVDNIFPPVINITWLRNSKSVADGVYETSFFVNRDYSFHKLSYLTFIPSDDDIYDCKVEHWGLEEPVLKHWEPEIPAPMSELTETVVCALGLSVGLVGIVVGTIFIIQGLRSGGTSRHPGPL
T1 sequence (MHC II beta, looked up): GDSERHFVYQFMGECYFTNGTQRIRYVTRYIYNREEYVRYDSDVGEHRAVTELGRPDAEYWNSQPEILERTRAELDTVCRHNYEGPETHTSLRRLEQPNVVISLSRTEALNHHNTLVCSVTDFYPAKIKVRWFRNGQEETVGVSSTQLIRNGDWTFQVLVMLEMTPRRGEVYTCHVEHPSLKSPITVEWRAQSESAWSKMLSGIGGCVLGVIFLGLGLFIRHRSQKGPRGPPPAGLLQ
Experiment: B cell-red blood cell binding assay: B cells on magnetic beads, bound red cells detected by anti-hemoglobin immunoblot
Experimental: FIG. 25 is a diagram showing conjugation of single domain antibody to engineered red blood cells and cell type-specific targeting. (A) Mouse mature red blood engineered to contain 3G-myc-GPA on the cell surface were incubated with. Sortase with or without VHH7-LPETG (SEQ ID NO: 44): a single domain antibody with binding specificity for mouse MHC class II molecules and sortase motif complementary to 3G. […] (B) Either wild type mouse B cells (expressing MHC class II) or B cells derived from MHC class II knock-out mice were immobilized on magnetic streptavidin beads via biotinylated α-CD19 antibody, incubated with 3G-myc-GPA red blood cells or red cells that contained sortase-labeled VHH7-LPETG (SEQ ID NO: 44)-myc GPA on their surface, and washed. Immobilization of B cells in all experimental set-ups was tested by presence of CD19 in α-CD19 immunoblot and binding between B cells and red blood cells was evaluated by the presence of hemoglobin in the α-hemoglobin immunoblot. (C) Schematic for experiment shown in (B); LPETG: (SEQ ID NO: 44).
A B cell—red blood cell binding assay was performed as follows. B cells were isolated from either wild-type C57BL/6 mice or mice knock-out for MI-IC class II using Dynabeads Mouse CD43 (Untouched B cells) (Life Technologies) according to manufacturer's recommendations. […]

B1: 3G-myc-hGPA on the surface of mouse red blood cells, not labeled with VHH7 (other, human, not shown: small tags and cut ends)
chain (part 1 of 2): GGG
chain (part 2 of 2): LSTTEVAMHTSTSSSVTKSYISSQTNDTHKRDTYAATPRAHEVSEISVRTVYPPEEETGERVQLAHHFSEPEITLIIFGVMAGVIGTILLISYGIRRLIKKSPSDVKPLPSPDTDVPLSSVEIENPETSDQ
notes: mature; also called 3G-myc-GPA red blood cells; unmodified red cells
  binding result: no binding
